The term EC50 denotes the concentration needed to bring the measured effect to its halfway point. Usually IC50 stands for the concentration that gives 50% inhibition. As usually defined, the Kd is a measure of binding affinity in units of concentration. By koff is commonly meant the first-order rate constant of dissociation. The term kon denotes the second-order rate constant of association.

Two molecules from patent publication US20240117061A1 (WUHAN YZY BIOPHARMA, published 2024) can be followed below.

Assay [1] addresses T1, human BCMA on cells (NCI-H929, U266B1, HEK293 huBCMA) (human, UniProt Q02223 1-184).
T1 construct: whole, on cells; also called cell surface BCMA antigen
T1 sequence (looked up): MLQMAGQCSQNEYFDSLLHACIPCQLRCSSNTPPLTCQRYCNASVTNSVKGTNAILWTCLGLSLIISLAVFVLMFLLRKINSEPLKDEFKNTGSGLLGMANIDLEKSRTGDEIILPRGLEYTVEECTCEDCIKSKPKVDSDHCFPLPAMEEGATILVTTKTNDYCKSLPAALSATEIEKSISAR
Put plainly: flow cytometry on NCI-H929 cells. Here is the method: (§1) Procedures: Preparation of cell suspensions: The cells were resuspended in PBS, and the cell density was adjusted to 2×10⁵ cells/well. Mouse antibodies were added to a 96-well plate at […] and serially 3-fold diluted from 3000 nM. The plate was incubated for 1 h at 4° C. 150 μL of precooled PBS containing 1% of FBS was added into the 96-well plate after the co-incubation with the primary antibody was finished. The mixtures were centrifuged at 300×g for 5 min and the supernatants were discarded. The above procedures were repeated once. The fluorescent secondary antibody PE […] (Biolegend, 409304) was added at 80 μL/well. The plate was incubated at 4° C. for 30 min. 150 μL of precooled PBS containing 1% of FBS was added into the 96-well plate after the co-incubation with the secondary antibody was finished. The mixtures were uniformly mixed with a pipette. The 96-well plate was centrifuged at 300×g for 5 min in a plate centrifuge and the supernatants were removed. The above procedures were repeated once. The cells were resuspended in 100 μL of PBS containing 1% of FBS and detected on a flow cytometry (BD Accuri™ C6).

For assay [2], the target named is T2, recombinant human BCMA-his fusion protein (ACRO Biosystem, Cat. No. BCA-H522y) (human, UniProt Q02223 1-54).
T2 construct: extracellular domain; Bought protein; also called huBCMA-his; hu BCMA-his; not shown: His tag
T2 sequence (looked up): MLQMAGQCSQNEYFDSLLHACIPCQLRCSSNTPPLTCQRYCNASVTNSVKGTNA
Put plainly: ELISA, coated antigen. On the procedure:
(§2) Procedures: huBCMA-his and cynoBCMA-his antigens were prepared into 0.5 μg/mL coating solutions with PBS (pH 7.4). The coating solutions were added to a microplate at 100 μL/well and incubated at 4° C. overnight. The residual coating solution was discarded before 3% BSA was added at 300 μL/well, and the plate was blocked for 3 h at room temperature. The microplate was washed once with PB ST at 300 The stock humanized monoclonal antibody solutions were serially 3-fold diluted to the 11th concentration. The dilutions were added to the microplate at 100 μL/well. After a 1-h incubation at room temperature, the microplate was washed thrice with PBST at 300 The HRP-conjugated 6*His, His-Tag antibody was 25,000-fold diluted with 1% BSA-PBST and added at 100 After another 1-h incubation at room temperature, the microplate was washed thrice with PB ST at 300 μL/well and dried. The TMB chromogenic solution was added at 100 μL. After a 5-min reaction at room temperature, 2 M H2504 was added at 100 μL/well to terminate the reaction. The microplate was placed on a microplate reader (Molecular Devices, SPECTRA Max plus 384) and the absorbance OD450 value was read at 450 nm wavelength.

Assay [3] addresses T3, recombinant cynomolgus monkey cynoBCMA-his (ACRO Biosystem, Cat. No. BCA-052H7) (cynomolgus monkey, UniProt A0A2K5UD97 1-53).
T3 construct: extracellular domain; Bought protein; also called cynomolgus/rhesus macaque BCMA/TNFRSF17 protein; not shown: His tag
As to the kind of experiment: ELISA, coated antigen. Here is the method:
as §2

Assay [4] deals with T3, recombinant cynomolgus monkey …. Put plainly: competitive ELISA, coated cynoBCMA-his, competitor 83A10-biotin. In general terms: In an ELISA, binding on a coated surface is turned into a signal by an enzyme label.
The target of assay [5] is T2, recombinant human BCMA-his fusion …. As to the kind of experiment: competitive ELISA, coated huBCMA-his, competitor 83A10-biotin.
Assay [6] addresses T4, cynomolgus monkey BCMA on HEK293 cynoBCMA cells (cynomolgus monkey, UniProt A0A2K5UD97 1-183).
T4 construct: whole, on cells
As to the kind of experiment: flow cytometry on HEK293 cynoBCMA cells. Here is the method: as §1

The target in assay [7] is T2, recombinant human BCMA-his fusion …. Put plainly: SPR (Biacore T200), anti-His capture on CM5, 1:1 fit. On the procedure: (§3) In this example, the antigen-antibody binding kinetics and affinity were determined by the BIACORE method.
(§4) Procedures: The anti-histidine antibody (GE, His capture Kit, Cat. No. 28995056) was conjugated to the Sereis S Sensor Chip CMS to capture the test articles, thus acquiring the binding kinetic and affinity data of the antigen, as an analyte, to the test articles. The initial concentration for detecting the binding of the antigen and the test articles was 10 nM. […] The Start up flushing process (1×HBS-EP+buffer) was performed at least thrice before loading to equilibrate the system. The association and dissociation tendencies between the antigen and the test articles were detected. When the dissociation was completed, a regeneration reagent was loaded for regeneration before the detection of the next concentration was performed. After the detection was finished, the data were fitted by using a 1:1 Binding fitting mode in data analysis software (Biacore T200 Evaluation Software).
Background: SPR reads the build-up and loss of mass on a sensor chip optically.

Assay [8] concerns the target T3, recombinant cynomolgus monkey …. Described as above. Here is the method: as §3, §4
Assay [9] deals with T2, recombinant human BCMA-his fusion …. As to the kind of experiment: competitive ELISA, coated huBCMA-his, competitor APRIL-biotin.
Assay [10] shares this target. As to the kind of experiment: competitive ELISA, coated huBCMA-his, competitor 83A10-biotin. On the procedure:
(§5) The 96-well microplate was treated with 100 μL of 0.5 μg/mL huBCMA-his in PBS and incubated overnight at 4° C. The plate was then washed thrice with PBS washing buffer containing 0.1% of Tween-20 and blocked with 300 μL of PBS containing 1% of BSA for 2 h. 100 μL of each BCMA antibody was added to the plate. […] The plate was incubated at 37° C. for 1 h, and unbound secondary antibody was washed with PBS washing buffer containing 0.1% of Tween-20. The TMB chromogenic solution was added at 100 μL/well. After a 5-min reaction at room temperature, 2 M H₂SO₄ was added at 100 μL/well to terminate the reaction. The microplate was placed on a microplate reader (Molecular Devices, SPECTRA Max plus 384) and the absorbance OD450 value was read at 450 nm wavelength.
The source holds these as a separate data set.

Assay [11] addresses T1, human BCMA on cells (NCI-H929, U266B1, …). As to the kind of experiment: flow cytometry on NCI-H929 cells. On the procedure:
(§6) Procedures: The cells were resuspended in PBS, and the cell density was adjusted to 2×10^5 cells/well. Human-mouse chimeric monoclonal antibodies were added to a 96-well plate at 50 μL/well and serially 3-fold diluted from 3000 nM to the 9th concentration. The plate was incubated for 1 h at 4° C. 150 μL of precooled PBS containing 1% of FBS was added into the 96-well plate after the co-incubation with the primary antibody was finished. The mixtures were centrifuged at 300×g for 5 min and the supernatants were discarded. The above procedures were repeated once. The fluorescent secondary antibody PE anti-human IgG Fc (Biolegend, 409304) was added at 80 μL/well. The plate was incubated at 4° C. for 30 min. 150 μL of precooled PBS containing 1% of FBS was added into the 96-well plate after the co-incubation with the secondary antibody was finished. The 96-well plate was centrifuged at 300×g for 5 min and the supernatants were discarded. The above procedures were repeated once. The cells were resuspended in 100 μL of PBS containing 1% of FBS and detected on a flow cytometry (BD Accuri™ C6).
The source holds these as a separate data set.

The target in assay [12] is T5, recombinant human BCMA-mFc fusion protein (human; mouse).
T5 construct: also called huBCMA-mFc
T5 chain: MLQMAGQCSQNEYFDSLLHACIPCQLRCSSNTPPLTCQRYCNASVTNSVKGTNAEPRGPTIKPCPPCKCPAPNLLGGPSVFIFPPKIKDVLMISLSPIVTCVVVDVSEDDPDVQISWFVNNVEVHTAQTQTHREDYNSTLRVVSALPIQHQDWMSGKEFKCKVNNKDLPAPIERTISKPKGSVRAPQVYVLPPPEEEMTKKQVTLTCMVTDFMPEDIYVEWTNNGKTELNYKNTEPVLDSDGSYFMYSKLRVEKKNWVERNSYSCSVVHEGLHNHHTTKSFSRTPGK
As to the kind of experiment: indirect ELISA, coated antigen. On the procedure: Procedures: Human, mouse and monkey BCMA antigens were prepared into 0.5 μg/mL coating solutions with PBS buffer. The coating solutions were added to a microplate at 100 μL/well and incubated at 4° C. overnight. The residual coating solution was discarded before 3% BSA was added at 300 μL/well, and the plate was blocked for 3 h at room temperature. The microplate was washed once with PB ST (PBS containing 0.1% of TWEEN 20) at 300 μL/well. The human-mouse chimeric monoclonal antibodies were serially 3-fold diluted from 10 μg/mL to the 9th concentration. The dilutions were added to the microplate at 100 μL/well. After a 1-h incubation at room temperature, the microplate was washed thrice with PB ST at 300 μL/well. The mouse anti-human IgG Fc antibody [HRP] mAb was 25,000-fold diluted with 1% BSA-PBST and added at 100 μL/well. After another 1-h incubation at room temperature, the microplate was washed thrice with PBST at 300 μL/well and dried. The TMB chromogenic solution was added at 100 μL/well. After a 5-min reaction at room temperature, 2 M H₂SO₄ was added at 100 μL/well to terminate the reaction. The microplate was placed on a microplate reader (Molecular Devices, SPECTRA Max plus 384) and the absorbance OD450 value was read at 450 nm wavelength.

The target of assay [13] is T2, recombinant human BCMA-his fusion …. Put plainly: competitive ELISA, coated huBCMA-his, competitor APRIL-biotin. On the procedure:
as §5
The source holds these as a separate data set.

The target is the same in assay [14]. As to the kind of experiment: competitive ELISA, coated huBCMA-his, competitor 83A10-biotin, antibody at 7 µg/mL.
The target of assay [15] is T1, human BCMA on cells (NCI-H929, U266B1, …). As to the kind of experiment: flow cytometry on U266B1 cells. Here is the method: as §6
Assay [16] has the same target. As to the kind of experiment: flow cytometry on NCI-H929 cells; NCI-H929 cells. On the procedure:
as §6
Background: Flow cytometry measures light scatter and fluorescence of single cells or particles in a stream.

T3 sequence (A0A2K5UD97 entry or part of it): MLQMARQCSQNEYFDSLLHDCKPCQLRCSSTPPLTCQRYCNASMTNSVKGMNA
T4 sequence (A0A2K5UD97 entry or part of it): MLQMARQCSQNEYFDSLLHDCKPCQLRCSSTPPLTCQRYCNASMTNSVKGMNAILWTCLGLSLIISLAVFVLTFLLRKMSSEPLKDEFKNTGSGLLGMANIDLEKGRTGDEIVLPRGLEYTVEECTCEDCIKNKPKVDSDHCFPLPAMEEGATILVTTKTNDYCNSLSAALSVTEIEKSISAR

B1: humanized antibody hu-mAb3 (VH3+VL3) (antibody, V domains shown)
VH: QVQLVQSGAEVKKPGASVKVSCKASGYTITDYNMDWVRQAPGQGLEWIGNINPHNGGSIYNQKFQGRATLTVDKSTSTAYMELSSLRSEDTAVYYCARGDATLVLDYWGQGTTVTVSS
VL: DIQLTQSPSSLSASVGDRATITCRASKSVSTSGLSYMHWYQQKPGKAPKVLIYLASNLESGVPARFSGSGSGTDFTLTISSVQPEDFATYYCQHSRELPPTFGQGTKLELK
notes: human IgG1/kappa named only as preferred
On to B1, for which the EC50 was 8.07 nM in [1], 0.0226 nM in [2], 0.0303 nM in [3] and 3.76 nM in assay [6]. Moreover, the figures for the IC50 in assay [4], in [5] and in assay [9] were 1.32 µg/mL, 1.37 µg/mL and 0.918 µg/mL, respectively. For the same molecule, the values for the Kd in [7] and in [8] were 0.399 nM and 0.256 nM, respectively. Besides, the koff was found to be 0.00235 s⁻¹ in assay [7] and 0.000773 s⁻¹ in [8]. The kon in [7] worked out at 5.9e+06 M⁻¹ s⁻¹; in assay [8] it was 3.02e+06 M⁻¹ s⁻¹.

B2: human-mouse chimeric antibody c-mAb1 (antibody, human IgG1, V domains shown)
VH: EVQLQQSGPELVKPGTSVEMSCKASGYTFTDYNIHWVRQRHGESLEWLGYINPNNGVTNFNQKFKGKATLTVNKSSSTAYMELRSLTSDDSAVYYCSSGLFDGYPFPYWGQGTLVTVSA
VL: DIVLTQSPASLVVSLGQRATISCRASKSVSTSGYNYIHWYQQKPGQPPKLLIFLASNLKSGVPARFSGGGSGTDFTLNIHPVEEDDAATYFCQHNRELPYTFGGGTKVEIK
notes: not shown: human IgG1 heavy chain constant region, GenBank No. AK303185.1; human kappa light chain constant region, GenBank No. MG815648.1
For B2, the IC50 stood at 3.16 µg/mL in assay [10] and 0.0114 µg/mL in assay [13]. The EC50 turned out to be 0.00158 nM in [2]; 7.5 nM in assay [11]; 0.647 nM in [12]; 1.9 nM in [15]; 7.5 nM in [16]. Further, the competition in assay [14] amounted to 70%. For the same molecule, the dissociation constant Kd in assay [7] came to 0.247 nM. Also, in [7], the dissociation rate constant (koff) worked out at 0.00202 s⁻¹. Also, in assay [7], the kon was found to be 8.18e+06 M⁻¹ s⁻¹.
